This data set is described as follows: label from the status in PepcDB records.
For “MPNTPWSATSQNLGQDFHNWSGGLRFRPSRLDVPEDEETVAALVRAAARQGRSIRPVGSAHSSSEIYVTDDILVSMAGICGLREHDAQHHRATVGAGSQLTELSKELQAAGMTLSNFGDVATQTVGGAIGTGTHGSGRDFPNLSMMLVGGRLVTAGGEIRTFDVEEEPDFVRALRVSFGTLGILTWTTLKLEPLHDLHRQEWCLAFEPCMEVLDKLSRENRNFDFYWYPRSDEVKIRCLNPPGEEKDYGAFARLAKDETGPPHEVIPQHSDLPHRFEEMEYSMPAEAGPECLGKLRARIKERWRRSVGWRLLFRYIKADDSWLSEAYGRDSVSISLHQNATLPYWDFFLDLEPIMRDHGGRPHWAKKHSLRAAELRPLYPMWDRFLALRQEMDPGGRFLTRYLRGLLGC”, the protein production result is recorded as “failed”.

As for “MKKILAFLLIAAGSTLFFVFLFIFLSKVFSGEILLSRYIFRIGGFELRWYSTLILMGFLISYFVARKRAKNEGINLEEFDELIFYGVIAGIVGARLYYVLFNLKYYRSLWDALKIWEGGLAIHGAVIGALLTGFLYVRLKKPSFTFLQATDLFTSVLPLGQAIGRWGNFFNYEAFGVPTNLPWKMFVPEPYRPVVYKDYSFFHPTFLYESIWDLLVFFMLSVYFKRYRKRHGEVTCLYFVLYSLGRIVIERLRVDSLMIGNIKAAQLLSAVLILLGFTGFLILRSSQEPKRAF”, the protein production entry is reported as “failed”.

“MSLKITRIDIHRTDLPVRGGVYRLSGGREYHSYDATIVSIETDTGLTGWGESTPFGSTYIAAHAGGTRAALELLAPAILGMDPRQHDRIWDRMRDTLKGHRDARAALDIACWDIAAQAAGLPLCDMTGGRVAGPVPVISSIGGDTPEAMRAKVARHRAQGFKGHSIKIGASEAEGGPALDAERITACLADRQPGEWYLADANNGLTVEHALRMLSLLPPGLDIVLEAPCASWAETKSLRARCALPLLLDELIQTETDLIAAIRDDLCDGVGLKVSKQGGITPMLRQRAIAAAAGMVMSVQDTVGSQISFAAILHLAQSTPRHLLRCALDTRAMTTAELAEIDAPLRDGGASAPSDPGLGLRVNRDALGTPVKTFGDPIEGHHHHHH”: the protein production result is “not failed”.

With “MRGLAVLVLLVFAVQVAAAEDFRPVVFVHGLAGSAGQFESQGMRFAANGYPAEYVKTFEYDTISWALVVETDMLFSGLGSEFGLNISQIIDPETLDKILSKSRERLIDETFSRLDRVIDEALAESGADKVDLVGHSMGTFFLVRYVNSSPERAAKVAHLILLDGVWGVDAPEGIPTLAVFGNPKALPALGLPEEKVVYNATNVYFNNMTHVQLCTSPETFAVMFEFINGYKPATTDIVPQDGDYVKVKGKFLAFATNGDVSGWLSIYPIDENGKRLTRLPVKFMRVKGDFEVRLRKGQLYEFQFRKDFSPIIYHYYRAPFVRDDLWARFLVSKPPLDVELLILPERLSPAAKETSGLLLIRYKEMIGEYDEEIGGVDEVYVNGVNVCTERICPIERAVNGLWVFDRGADGKSDLDREVVRYSIMPFMSAADLVVPAEGTISIAVKSRTGGEESFTIPAWSADRHSIIVQFSDYI”, the protein production entry is recorded as “failed”.

As to “MALDLNDVALFVQVVRSGSFAQAARHLGMPSNTVSRKVQQLEIQLGTRLLHRSTRKLVLTQAGEDFHERCVGAVDGLMDAAEQLVSGREEPGGRLRIAAMADFFDFFSMEWVADFLAEYPRVQLEFVLSDERADLIADRLDIAFRGGPLQDSGYVGRQLIEEGHDTMVASPAYIAAHGMPDSLQSLHGHYCVSTAHPGGSTVWRLLGPDAKMHEVQMASRFNANTAQALRKATLAGLGIALLPATLIRSDLRDGRLVPVLTQYQRTSHGLHVLYPSRQHLPPAVSAFIALVMEKLRDKAFAAQ”, the protein production result was “failed”.

“MSLLERLNQDMKLYMKNREKDKLTVVRMVKASLQNEAIKLKKDSLTEDEELTVLSRELKQRKDSLQEFSNANRLDLVDKVQKELDILEVYLPEQLSEEELRTIVNETIAEVGASSKADMGKVMGAIMPKVKGKADGSLINKLVSSQLS”: the protein production result is on record as “not failed”.

For the sequence “QQKNMENKTLNENIPEMIISLEKEALASTDPMAFVELSDTDVIYFDPSLETKIEGLEQLRTYYKGMQLPPADHFDMIRPVVQVAQNIAVLTFNLDSYLSDKVIKWNCTEVYRRNPDNQWKIIQTHWSYVKPLD”, the protein production entry is on record as “not failed”.

The values above are taken from a protein production outcome set (Wang et al. 2014).
